Source: PMC9482650, “Quantitative fragmentomics allow affinity mapping of interactomes” (Nature Communications, 2022)

Columns and labels:
Assay in all cases: holdup assay
Parameters in all cases: key: below the threshold = too weak to quantify, mostly under pKd 3.1 to 4
APBA2_1, Q99767 = target: T1, APBA2_1, Q99767
T1 sequence (Q99767 563-664, limits assumed, looked up): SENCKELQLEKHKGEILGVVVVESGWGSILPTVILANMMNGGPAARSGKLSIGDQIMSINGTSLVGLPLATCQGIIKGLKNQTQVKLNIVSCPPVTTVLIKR

APBA3_1, O96018 = target: T2, APBA3_1, O96018
T2 sequence (O96018 389-490, limits assumed, looked up): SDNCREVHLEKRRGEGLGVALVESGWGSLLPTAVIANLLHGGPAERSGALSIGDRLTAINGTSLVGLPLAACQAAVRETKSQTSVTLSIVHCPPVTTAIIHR

ARHGEF11, O15085 = target: T3, ARHGEF11, O15085
T3 sequence (O15085 42-136, limits assumed, looked up): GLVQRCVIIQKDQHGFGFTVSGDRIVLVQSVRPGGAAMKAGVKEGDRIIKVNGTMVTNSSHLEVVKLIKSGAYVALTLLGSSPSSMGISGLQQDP

ARHGEF12, Q9NZN5-2 = target: ARHGEF12, Q9NZN5-2
Chain of ARHGEF12, Q9NZN5-2 (Q9NZN5 other isoform, or with tags, fused parts or gaps): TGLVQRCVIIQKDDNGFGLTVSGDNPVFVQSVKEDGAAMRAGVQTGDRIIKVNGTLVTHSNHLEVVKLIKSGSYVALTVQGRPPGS

CARD11, Q9BXL7 = target: T4, CARD11, Q9BXL7
T4 sequence (Q9BXL7 662-765, limits assumed, looked up): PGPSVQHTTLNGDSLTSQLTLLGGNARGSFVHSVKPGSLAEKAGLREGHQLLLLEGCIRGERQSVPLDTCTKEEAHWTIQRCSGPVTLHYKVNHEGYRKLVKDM

CASK, O14936 = target: CASK, O14936
Chain of CASK, O14936 (O14936 487-570): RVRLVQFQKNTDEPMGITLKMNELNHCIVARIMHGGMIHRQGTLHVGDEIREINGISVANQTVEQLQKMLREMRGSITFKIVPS

DLG5_1, Q8TDM6 = target: DLG5_1, Q8TDM6
Chain of DLG5_1, Q8TDM6 (Q8TDM6 617-713): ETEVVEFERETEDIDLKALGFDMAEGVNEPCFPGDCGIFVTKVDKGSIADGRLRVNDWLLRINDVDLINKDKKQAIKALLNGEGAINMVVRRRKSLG

DVL3, Q92997 = target: T5, DVL3, Q92997
T5 sequence (Q92997 244-331, limits assumed, looked up): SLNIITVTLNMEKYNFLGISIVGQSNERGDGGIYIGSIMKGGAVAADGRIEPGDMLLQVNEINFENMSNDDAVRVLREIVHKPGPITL

FRMPD1, Q5SYB0 = target: T6, FRMPD1, Q5SYB0
T6 sequence (Q5SYB0 52-145, limits assumed, looked up): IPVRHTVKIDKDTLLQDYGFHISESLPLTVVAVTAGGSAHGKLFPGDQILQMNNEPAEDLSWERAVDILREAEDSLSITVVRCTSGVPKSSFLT

GRIP1_2, Q9Y3R0 = target: T7, GRIP1_2, Q9Y3R0
T7 sequence (Q9Y3R0 145-248, limits assumed, looked up): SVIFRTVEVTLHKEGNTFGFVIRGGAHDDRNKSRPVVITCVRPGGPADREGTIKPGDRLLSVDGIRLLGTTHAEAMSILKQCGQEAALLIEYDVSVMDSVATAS

GRIP2_3, Q9C0E4 = target: GRIP2_3, Q9C0E4
Chain of GRIP2_3, Q9C0E4 (Q9C0E4 238-339): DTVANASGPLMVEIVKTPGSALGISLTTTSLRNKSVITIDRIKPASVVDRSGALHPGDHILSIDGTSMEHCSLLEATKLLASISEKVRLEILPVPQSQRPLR

GRIP2_6, Q9C0E4 = target: GRIP2_6, Q9C0E4
Chain of GRIP2_6, Q9C0E4 (Q9C0E4 648-740): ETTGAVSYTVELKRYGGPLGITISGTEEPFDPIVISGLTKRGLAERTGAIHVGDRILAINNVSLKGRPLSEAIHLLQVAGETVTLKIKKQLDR

HTRA2, O43464 = target: HTRA2, O43464
Chain of HTRA2, O43464 (O43464 355-458): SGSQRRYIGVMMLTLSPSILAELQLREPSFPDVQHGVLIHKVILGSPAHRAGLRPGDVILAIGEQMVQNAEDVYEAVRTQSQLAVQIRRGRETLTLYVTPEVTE

IL16_1, Q14005 = target: IL16_1, Q14005
Chain of IL16_1, Q14005 (Q14005 210-306): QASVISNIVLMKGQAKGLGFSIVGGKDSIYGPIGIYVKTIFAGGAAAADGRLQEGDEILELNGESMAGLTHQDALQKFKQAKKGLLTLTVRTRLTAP

Inadl_6, Q8NI35 = target: Inadl_6, Q8NI35
Chain of Inadl_6, Q8NI35 (Q8NI35 1058-1167): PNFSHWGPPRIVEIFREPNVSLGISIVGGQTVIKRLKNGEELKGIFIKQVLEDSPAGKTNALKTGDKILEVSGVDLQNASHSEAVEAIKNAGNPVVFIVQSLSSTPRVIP

MAGI2_6, Q86UL8 = target: MAGI2_6, Q86UL8
Chain of MAGI2_6, Q86UL8 (Q86UL8 1141-1229): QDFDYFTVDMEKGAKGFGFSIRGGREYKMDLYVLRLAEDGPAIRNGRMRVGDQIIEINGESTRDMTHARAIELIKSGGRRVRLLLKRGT

MPP6, Q9NZW5 = target: T8, MPP6, Q9NZW5
T8 sequence (Q9NZW5 125-219, limits assumed, looked up): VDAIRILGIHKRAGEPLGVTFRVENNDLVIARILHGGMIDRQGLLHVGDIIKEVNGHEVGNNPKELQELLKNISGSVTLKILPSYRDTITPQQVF

NHERF3_1, Q5T2W1 = target: T9, NHERF3_1, Q5T2W1
T9 sequence (Q5T2W1 4-100, limits assumed, looked up): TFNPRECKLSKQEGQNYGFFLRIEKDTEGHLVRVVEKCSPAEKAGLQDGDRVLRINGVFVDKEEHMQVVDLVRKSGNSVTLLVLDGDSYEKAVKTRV

NHERF4_2, Q86UT5 = target: NHERF4_2, Q86UT5
Chain of NHERF4_2, Q86UT5 (Q86UT5 220-308): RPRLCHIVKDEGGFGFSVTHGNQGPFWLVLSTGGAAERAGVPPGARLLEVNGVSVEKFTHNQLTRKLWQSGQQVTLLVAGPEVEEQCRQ

NOS1, P29475 = target: NOS1, P29475
Chain of NOS1, P29475 (P29475 9-101): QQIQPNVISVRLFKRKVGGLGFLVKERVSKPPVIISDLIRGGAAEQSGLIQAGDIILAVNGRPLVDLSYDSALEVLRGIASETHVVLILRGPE

PCLO, Q9Y6V0 = target: T10, PCLO, Q9Y6V0
T10 sequence (Q9Y6V0 4491-4600, limits assumed, looked up): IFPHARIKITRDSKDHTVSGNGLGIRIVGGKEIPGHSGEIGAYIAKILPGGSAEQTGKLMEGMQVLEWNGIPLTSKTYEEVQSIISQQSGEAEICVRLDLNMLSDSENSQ

PICK1, Q9NRD5 = target: PICK1, Q9NRD5
Chain of PICK1, Q9NRD5 (Q9NRD5 17-115): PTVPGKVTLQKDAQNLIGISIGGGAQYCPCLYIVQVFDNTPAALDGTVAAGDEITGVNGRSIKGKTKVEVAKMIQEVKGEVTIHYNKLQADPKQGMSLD

SNTA1, Q13424 = target: T11, SNTA1, Q13424
T11 sequence (Q13424 82-180, limits assumed, looked up): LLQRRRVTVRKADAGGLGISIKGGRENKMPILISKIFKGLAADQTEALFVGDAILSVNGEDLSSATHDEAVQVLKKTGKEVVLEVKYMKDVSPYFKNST

TIAM2, Q8IVF5 = target: T12, TIAM2, Q8IVF5
T12 sequence (Q8IVF5 885-986, limits assumed, looked up): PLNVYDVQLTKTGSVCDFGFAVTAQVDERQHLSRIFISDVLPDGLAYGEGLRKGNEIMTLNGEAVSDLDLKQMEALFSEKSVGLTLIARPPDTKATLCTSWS

TJP3_3, O95049 = target: T13, TJP3_3, O95049
T13 sequence (O95049 375-456, limits assumed, looked up): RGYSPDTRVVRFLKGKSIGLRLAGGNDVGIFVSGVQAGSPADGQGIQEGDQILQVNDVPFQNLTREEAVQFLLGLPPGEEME

[1] = plain residues with an end cap or a label only (N-terminal biotin on a linker: ado-ado)
[2] = modified: phospho on T at position -1 from the C-terminal residue
[3] = modified: phospho on T at position -2 from the C-terminal residue

Binder: DQPLEKSTKL [AKAP10, O43572]
- pKd (APBA2_1, Q99767; [1]): below the threshold
- pKd (APBA3_1, O96018; [1]): below the threshold
- pKd (ARHGEF11, O15085; [1]): 4.2
- pKd (ARHGEF12, Q9NZN5-2; [1]): 4.97
- pKd (CARD11, Q9BXL7; [1]): below the threshold
- pKd (CASK, O14936; [1]): below the threshold
- pKd (DLG5_1, Q8TDM6; [1]): below the threshold
- pKd (DVL3, Q92997; [1]): below the threshold
- pKd (FRMPD1, Q5SYB0; [1]): below the threshold
- pKd (GRIP1_2, Q9Y3R0; [1]): below the threshold
- pKd (GRIP2_3, Q9C0E4; [1]): below the threshold
- pKd (GRIP2_6, Q9C0E4; [1]): below the threshold
- pKd (HTRA2, O43464; [1]): below the threshold
- pKd (IL16_1, Q14005; [1]): below the threshold
- pKd (Inadl_6, Q8NI35; [1]): below the threshold
- pKd (MAGI2_6, Q86UL8; [1]): below the threshold
- pKd (MPP6, Q9NZW5; [1]): below the threshold
- pKd (NHERF3_1, Q5T2W1; [1]): 6.02
- pKd (NHERF4_2, Q86UT5; [1]): below the threshold
- pKd (NOS1, P29475; [1]): below the threshold
- pKd (PCLO, Q9Y6V0; [1]): below the threshold
- pKd (PICK1, Q9NRD5; [1]): below the threshold
- pKd (SNTA1, Q13424; [1]): 3.71
- pKd (TIAM2, Q8IVF5; [1]): 4.04
- pKd (TJP3_3, O95049; [1]): below the threshold

Binder: LEPAVRSSEL [SH2D3C, Q8N5H7]
- pKd (APBA2_1, Q99767; [1]): below the threshold
- pKd (APBA3_1, O96018; [1]): below the threshold
- pKd (ARHGEF11, O15085; [1]): 4.18
- pKd (ARHGEF12, Q9NZN5-2; [1]): 4.91
- pKd (CARD11, Q9BXL7; [1]): below the threshold
- pKd (CASK, O14936; [1]): below the threshold
- pKd (DLG5_1, Q8TDM6; [1]): below the threshold
- pKd (DVL3, Q92997; [1]): below the threshold
- pKd (FRMPD1, Q5SYB0; [1]): below the threshold
- pKd (GRIP1_2, Q9Y3R0; [1]): below the threshold
- pKd (GRIP2_3, Q9C0E4; [1]): below the threshold
- pKd (GRIP2_6, Q9C0E4; [1]): below the threshold
- pKd (HTRA2, O43464; [1]): below the threshold
- pKd (IL16_1, Q14005; [1]): below the threshold
- pKd (Inadl_6, Q8NI35; [1]): below the threshold
- pKd (MAGI2_6, Q86UL8; [1]): 3.96
- pKd (MPP6, Q9NZW5; [1]): below the threshold
- pKd (NHERF3_1, Q5T2W1; [1]): 5.33
- pKd (NHERF4_2, Q86UT5; [1]): below the threshold
- pKd (NOS1, P29475; [1]): below the threshold
- pKd (PCLO, Q9Y6V0; [1]): below the threshold
- pKd (PICK1, Q9NRD5; [1]): below the threshold
- pKd (SNTA1, Q13424; [1]): 3.95
- pKd (TIAM2, Q8IVF5; [1]): below the threshold
- pKd (TJP3_3, O95049; [1]): below the threshold

Binder: GQSVDLVFPV [AKIP1, Q9NQ31]
- pKd (APBA2_1, Q99767; [1]): 3.59
- pKd (APBA3_1, O96018; [1]): below the threshold
- pKd (ARHGEF11, O15085; [1]): 4.09
- pKd (ARHGEF12, Q9NZN5-2; [1]): below the threshold
- pKd (CARD11, Q9BXL7; [1]): 3.63
- pKd (CASK, O14936; [1]): below the threshold
- pKd (DLG5_1, Q8TDM6; [1]): 3.48
- pKd (DVL3, Q92997; [1]): below the threshold
- pKd (FRMPD1, Q5SYB0; [1]): below the threshold
- pKd (GRIP1_2, Q9Y3R0; [1]): below the threshold
- pKd (GRIP2_3, Q9C0E4; [1]): below the threshold
- pKd (GRIP2_6, Q9C0E4; [1]): below the threshold
- pKd (HTRA2, O43464; [1]): 3.54
- pKd (IL16_1, Q14005; [1]): below the threshold
- pKd (Inadl_6, Q8NI35; [1]): below the threshold
- pKd (MAGI2_6, Q86UL8; [1]): below the threshold
- pKd (MPP6, Q9NZW5; [1]): below the threshold
- pKd (NHERF3_1, Q5T2W1; [1]): below the threshold
- pKd (NHERF4_2, Q86UT5; [1]): below the threshold
- pKd (NOS1, P29475; [1]): 3.93
- pKd (PCLO, Q9Y6V0; [1]): below the threshold
- pKd (PICK1, Q9NRD5; [1]): below the threshold
- pKd (SNTA1, Q13424; [1]): below the threshold
- pKd (TIAM2, Q8IVF5; [1]): below the threshold
- pKd (TJP3_3, O95049; [1]): below the threshold

Binder: RRVRKLPSTTL [RPS6KA1_-1P, Q15418]
- pKd (APBA2_1, Q99767; [2]): below the threshold
- pKd (APBA3_1, O96018; [2]): below the threshold
- pKd (ARHGEF11, O15085; [2]): 4.29
- pKd (ARHGEF12, Q9NZN5-2; [2]): 4.87
- pKd (CARD11, Q9BXL7; [2]): below the threshold
- pKd (CASK, O14936; [2]): below the threshold
- pKd (DLG5_1, Q8TDM6; [2]): below the threshold
- pKd (DVL3, Q92997; [2]): below the threshold
- pKd (FRMPD1, Q5SYB0; [2]): below the threshold
- pKd (GRIP1_2, Q9Y3R0; [2]): below the threshold
- pKd (GRIP2_3, Q9C0E4; [2]): below the threshold
- pKd (GRIP2_6, Q9C0E4; [2]): below the threshold
- pKd (HTRA2, O43464; [2]): 3.49
- pKd (IL16_1, Q14005; [2]): 3.46
- pKd (Inadl_6, Q8NI35; [2]): 3.52
- pKd (MAGI2_6, Q86UL8; [2]): 3.83
- pKd (MPP6, Q9NZW5; [2]): below the threshold
- pKd (NHERF3_1, Q5T2W1; [2]): 4.2
- pKd (NHERF4_2, Q86UT5; [2]): below the threshold
- pKd (NOS1, P29475; [2]): below the threshold
- pKd (PCLO, Q9Y6V0; [2]): below the threshold
- pKd (PICK1, Q9NRD5; [2]): 3.49
- pKd (SNTA1, Q13424; [2]): 3.85
- pKd (TIAM2, Q8IVF5; [2]): 3.41
- pKd (TJP3_3, O95049; [2]): below the threshold

Binder: RRVRKLPSTTL [RPS6KA1_-2P, Q15418]
- pKd (APBA2_1, Q99767; [3]): below the threshold
- pKd (APBA3_1, O96018; [3]): below the threshold
- pKd (ARHGEF11, O15085; [3]): below the threshold
- pKd (ARHGEF12, Q9NZN5-2; [3]): below the threshold
- pKd (CARD11, Q9BXL7; [3]): below the threshold
- pKd (CASK, O14936; [3]): below the threshold
- pKd (DLG5_1, Q8TDM6; [3]): below the threshold
- pKd (DVL3, Q92997; [3]): below the threshold
- pKd (FRMPD1, Q5SYB0; [3]): below the threshold
- pKd (GRIP1_2, Q9Y3R0; [3]): 3.52
- pKd (GRIP2_3, Q9C0E4; [3]): below the threshold
- pKd (GRIP2_6, Q9C0E4; [3]): below the threshold
- pKd (HTRA2, O43464; [3]): below the threshold
- pKd (IL16_1, Q14005; [3]): below the threshold
- pKd (Inadl_6, Q8NI35; [3]): below the threshold
- pKd (MAGI2_6, Q86UL8; [3]): below the threshold
- pKd (MPP6, Q9NZW5; [3]): below the threshold
- pKd (NHERF3_1, Q5T2W1; [3]): below the threshold
- pKd (NHERF4_2, Q86UT5; [3]): below the threshold
- pKd (NOS1, P29475; [3]): below the threshold
- pKd (PCLO, Q9Y6V0; [3]): below the threshold
- pKd (PICK1, Q9NRD5; [3]): below the threshold
- pKd (SNTA1, Q13424; [3]): below the threshold
- pKd (TIAM2, Q8IVF5; [3]): below the threshold
- pKd (TJP3_3, O95049; [3]): below the threshold
